The values that follow come from US20110165170A1 (Pfizer, published 2011).

Usually koff stands for a measure of how fast the partners let go of each other. Usually kon stands for the rate constant with which the complex forms. The term EC50 denotes the concentration needed to bring the measured effect to its halfway point.

In assay [1] the target is T1, recombinant mouse osteopontin (R&D Systems #441-OP/CF, carrier free) (mouse, UniProt P10923 17-294, biotinylated in the capture ELISA).
T1 construct: Bought protein; also called mOPN; mouse OPN
Kind of assay: Biacore (SPR), Fab over amine-coupled murine OPN on CM5 chip. The procedure:
(§1) Binding to immobilized antigen was analyzed using the BIAcore3000 instrument (Biacore, Sweden).
(§2) For antigen immobilization, two alternative strategies were used: in the case of human OPN, biotinylated human OPN was bound to a Streptavidin coated sensor chip (Biacore, Sweden) to a binding level of approximately 300 RU. The reference flow cell was coated with a similar amount of biotinylated HSA. In the case of murine OPN, the antigen was immobilized covalently using standard EDC-NHS amine coupling chemistry. CM5 chips (Biacore, Sweden) were coated with murine OPN in 10 mM acetate buffer, pH 3.5 to a level of 400 RU. For the reference flow cell, a respective amount of HSA was used. Regeneration was accomplished with two injections of 10 mM Gly/HCl, pH 1.5 (5 μL) and 50 mM phosphoric acid (5 μL), respectively. Kinetic measurements were done in Dulbeccos PBS, pH 7.4 (Gibco) with 0.05% Tween 20 at a flow rate of 20 μL/min using a 2n serial dilution row of Fab samples. The Fab concentrations ranged from 15.6 to 500 nM. The injection time for each concentration was 1 minute, and the dissociation time was set to a minimum of 3 minutes. A blank injection of running buffer was used for double referencing. All sensorgrams were fitted globally using BIA evaluation software 3.2 (Biacore, Sweden), to determine association and dissociation rate constants (kₒₙ and koff), which were used to calculate the affinity (KD=koff/kₒₙ).
On the technique in general: Surface plasmon resonance follows binding to a sensor surface in real time, without labels.

Assay [2] concerns the target T2, recombinant human osteopontin (R&D Systems #1433-OP/CF, carrier free) (human, UniProt P10451 17-314, biotinylated in the capture ELISA, on the SET plates and on the Biacore streptavidin chip). Kind of assay: cell-based or functional assay.
The target of assay [3] is T2, recombinant human osteopontin (R&D …). Kind of assay: Biacore (SPR), Fab over biotinylated human OPN on streptavidin chip. The procedure: as §1, §2
The target is the same in assay [4]. The experiment in a line: solution equilibrium titration (SET), ECL, Fab. The procedure:
Affinity determination in solution was basically performed as described in the literature (Friguet et al., J. Immunol. Methods 77:305 (1985)). In order to improve the sensitivity and accuracy of the SET method, it was transferred from classical ELISA to ECL based technology (Haenel et al., Anal. Biochem. 339:182-184 (2005)). 1 mg/mL goat-anti-human (Fab)₂ fragment specific antibodies (Dianova) were labeled with MSD Sulfo-TAG™ NHS-Ester (Meso Scale Discovery, Gaithersburg, Md., USA) according to the manufacturer's instructions. The experiments were carried out in polypropylene microtiter plates and PBS, pH 7.4, with 0.5% BSA and 0.02% Tween 20 as assay buffer. Unlabeled osteopontin was diluted in a 2n series, starting with a concentration at least 10 times higher than the expected KD. Wells without antigen were used to determine Bₘₐₓ values; wells with assay buffer were used to determine background. After addition of e.g. 25 pM Fab (final concentration in 60 μL final volume), the mixture was incubated over night at room temperature. The applied Fab concentration was similar to or below the expected KD.
Streptavidin coated MSD plates were blocked over night with 3% BSA in PBS (50 μL/well), subsequently the blocking solution was discarded and the plates were coated with […] biotinylated osteopontin in assay buffer (30 μL/well) for 1 hour. After washing the coated MSD plates with assay buffer, the equilibrated samples were transferred to those plates (30 μL/well) and incubated for 20 minutes. After washing, 30 μL/well of the MSD Sulfo-tag labeled detection antibody (goat anti-human (Fab)₂) in a final dilution of 1:1000 was added to the MSD plate and incubated for 30 minutes on an Eppendorf shaker (700 rpm).

For assay [5], the target named is T1, recombinant mouse osteopontin (R&D …). Kind of assay: Biacore 3000 (SPR), IgG flowed over amine-coupled mouse Osteopontin; avidity, 1:1 fit. The procedure: (§3) Binding avidity of monoclonal antibodies to Osteopontin was determined using Biacore analysis (General Electric Healthcare, Biacore 3000). To obtain nominal avidity measurements, human Osteopontin (R&D Systems, 1433-OP-050/CF) and mouse Osteopontin (R&D Systems, 441-OP-050/CF) were immobilized on a biosensor chip using standard amine coupling and various concentrations of monoclonal antibodies (MOR6990, MOR6991 and MOR6993) were flowed across the surface at 25.0° C. in 10 mM HEPES pH 7.4, 150 mM NaCl, 0.005% P20. The binding data were fit globally to a simple one-to-one binding model.

Assay [6] has as its target T2, recombinant human osteopontin (R&D …). Kind of assay: cell-based or functional assay. This is another data set of the same source.
Assay [7] has the same target. The experiment in a line: Biacore 3000 (SPR), IgG flowed over amine-coupled human Osteopontin; avidity, 1:1 fit. The procedure:
as §3

Assay [8] deals with T3, SPP1 peptide comprising functional domains of mouse OPN (27 aa) (mouse).
T3 construct: Target of the 'Peptide ELISA, mOPN' columns; also called mOPN peptide; SSP1 peptide
Kind of assay: peptide ELISA, Fab on mouse SPP1 peptide.

Assay [9] concerns the target T1, recombinant mouse osteopontin (R&D …). Kind of assay: Biacore (SPR), Fab over immobilized mouse OPN. The procedure:
as §2

Assay [10] shares this target. Kind of assay: protein ELISA, Fab on mouse OPN protein. A general note: In an ELISA, binding on a coated surface is turned into a signal by an enzyme label.
Assay [11] has as its target T4, SPP1 peptide comprising functional domains of human OPN (27 aa) (human).
T4 construct: Target of the 'Peptide ELISA, hOPN' columns; also called hOPN peptide; SSP1 peptide
Kind of assay: peptide ELISA, Fab on human SPP1 peptide.

Assay [12] addresses T2, recombinant human osteopontin (R&D …). Kind of assay: protein ELISA, Fab on human OPN protein.
Assay [13] has the same target. The experiment in a line: Biacore (SPR), Fab over immobilized human OPN.

Read-outs that look alike come from different tables or passages of the source.

T1 sequence (P10923 17-294 limits assumed): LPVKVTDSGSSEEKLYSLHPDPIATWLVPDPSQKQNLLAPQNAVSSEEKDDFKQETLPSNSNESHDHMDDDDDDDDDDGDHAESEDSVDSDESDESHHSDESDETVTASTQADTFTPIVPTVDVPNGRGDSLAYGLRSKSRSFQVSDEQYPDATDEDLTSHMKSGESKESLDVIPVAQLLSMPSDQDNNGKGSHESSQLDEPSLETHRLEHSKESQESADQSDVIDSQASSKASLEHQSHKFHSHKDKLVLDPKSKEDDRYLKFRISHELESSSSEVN
T2 sequence (P10451 other isoform, or with tags, fused parts or gaps limits assumed): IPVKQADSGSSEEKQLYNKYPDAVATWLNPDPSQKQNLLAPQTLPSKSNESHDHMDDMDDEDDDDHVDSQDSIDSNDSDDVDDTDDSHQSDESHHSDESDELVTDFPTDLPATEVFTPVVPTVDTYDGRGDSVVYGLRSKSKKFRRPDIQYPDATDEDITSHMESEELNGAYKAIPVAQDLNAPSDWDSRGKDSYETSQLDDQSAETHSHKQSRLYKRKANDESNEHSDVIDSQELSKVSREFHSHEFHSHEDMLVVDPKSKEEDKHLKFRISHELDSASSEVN

B1: HuCAL GOLD Fab 6993 (MOR-6993 Fab) (Fab, V domains shown)
VH: QVQLVESGGGLVQPGGSLRLSCAASGFTFTTSSMHWVRQAPGKGLEWVSRISSHGSNTYYADSVKGRFTISRDNSKNTLYLQMNSLRAEDTAVYYCARDMYRGVYGFALWGQGTLVTVSS
VL: DIELTQPPSVSVAPGQTARISCSGDAIRNYYVHWYQQKPGQAPVLVIYEDSDRPSGIPERFSGSNSGNTATLTISGTQAEDEADYYCQSYDKSNVVFGGGTKLTVL
notes: Fab format made in E. coli
Turning to B1, the Kd in [1] turned out to be 3980 nM; in [3], 70 nM; in [4], 0.2 nM. In addition, the “Adhesion Assay Mn2+-dependent hOPN, IC50” value in assay [2] is 29.8 nM.

B2: MOR-6993 (full length human IgG2) (antibody, V domains shown)
VH: QVQLVESGGGLVQPGGSLRLSCAASGFTFTTSSMHWVRQAPGKGLEWVSRISSHGSNTYYADSVKGRFTISRDNSKNTLYLQMNSLRAEDTAVYYCARDMYRGVYGFALWGQGTLVTVSS
VL: DIELTQPPSVSVAPGQTARISCSGDAIRNYYVHWYQQKPGQAPVLVIYEDSDRPSGIPERFSGSNSGNTATLTISGTQAEDEADYYCQSYDKSNVVFGGGTKLTVLG
notes: Human IgG2, lambda light chain; made in HKB11 cells
Consider B2, for which, in assay [5], the Kd was 0.747 nM, the koff amounted to 0.00496 s⁻¹ and the association rate constant (kon) is 6.64e+06 M⁻¹ s⁻¹. For the same molecule, the “Adhesion Assay Mn2+-dependent hOPN, IC50” value in assay [6] came out at 0.4 nM. In addition, in [7], the Kd was 0.752 nM, the dissociation rate constant (koff) came to 0.00462 s⁻¹ and the association rate constant (kon) was 6.14e+06 M⁻¹ s⁻¹.

B3: MOR-6990 (full length human IgG2) (antibody, V domains shown)
VH: QVQLVESGGGLVQPGGSLRLSCAASGFTFSNYVMHWVRQAPGKGLEWVSSIFGSGSDTYYADSVKGRFTISRDNSKNTLYLQMNSLRAEDTAVYYCARSASSGFGFAGYGIDSWGQGTLVTVSS
VL: DIELTQPPSVSVAPGQTARISCSGDSLRYYYAHWYQQKPGQAPVLVIYDDNKRPSGIPERFSGSNSGNTATLTISGTQAEDEADYYCQSWDLFHSSVFGGGTKLTVLG
notes: as for B2
For the molecule B3, in [5], the Kd turned out to be 4.7 nM, the koff is 0.000864 s⁻¹ and the kon was 183000 M⁻¹ s⁻¹. Further, in [6], the “Adhesion Assay Mn2+-dependent hOPN, IC50” value is 0.4 nM. In [7], the Kd amounted to 20.9 nM, the koff was found to be 0.00203 s⁻¹ and the kon came to 96900 M⁻¹ s⁻¹.

B4: HuCAL GOLD Fab 6990 (MOR-6990 Fab) (Fab, V domains shown)
VH: QVQLVESGGGLVQPGGSLRLSCAASGFTFSNYVMHWVRQAPGKGLEWVSSIFGSGSDTYYADSVKGRFTISRDNSKNTLYLQMNSLRAEDTAVYYCARSASSGFGFAGYGIDSWGQGTLVTVSS
VL: DIELTQPPSVSVAPGQTARISCSGDSLRYYYAHWYQQKPGQAPVLVIYDDNKRPSGIPERFSGSNSGNTATLTISGTQAEDEADYYCQSWDLFHSSVFGGGTKLTVL
notes: Fab format made in E. coli
In the case of B4, the Kd was 2270 nM in assay [1], 140 nM in assay [3] and 35 nM in assay [4]. For the same molecule, the “Adhesion Assay Mn2+-dependent hOPN, IC50” value in assay [2] was 157 nM.

B5: MOR-10475 Fab (Fab, V domains shown)
VH: QVQLVESGGGLVQPGGSLRLSCAASGFTFSNYVMHWVRQAPGKGLEWVSSIFGSGSDTYYADSVKGRFTISRDNSKNTLYLQMNSLRAEDTAVYYCARSASSGFGFAGYGIDSWGQGTLVTVSS
VL: DIELTQPPSVSVAPGQTARISCSGDSLRYYYAHWYQQKPGQAPVLVIYDDNKRPSGIPERFSGSNSGNTATLTISGTQAEDEADYYCQAWDLINSHVFGGGTKLTVL
notes: Only variable domains are tied to the Fab
For the molecule B5, the EC50 in assay [8] turned out to be 0.7 nM; in [10], 0.6 nM; in [11] it was 0.7 nM; in assay [12] it was 0.6 nM. The Kd was found to be 41 nM in assay [9] and 80 nM in assay [13].

B6: HuCAL GOLD Fab 6991 (MOR-6991 Fab) (Fab, V domains shown)
VH: QVQLVESGGGLVQPGGSLRLSCAASGFTFNNYAVSWVRQAPGKGLEWVSGISYGGSNTYYADSVKGRFTISRDNSKNTLYLQMNSLRAEDTAVYYCARTLGGDFDHWGQGTLVTVSS
VL: DIVLTQPPSVSGAPGQRVTISCSGSSSNIGSNYVNWYQQLPGTAPKLLIYGNSKRPSGVPDRFSGSKSGTSASLAITGLQSEDEADYYCQSFTQMLLVFGGGTKLTVL
notes: Fab format made in E. coli
Consider B6, for which the results for the Kd in [1], in assay [3] and in assay [4] were 1390 nM, 300 nM and 3 nM, respectively. Moreover, the “Adhesion Assay Mn2+-dependent hOPN, IC50” value in assay [2] was 264 nM.

B7: MOR-6991 (full length human IgG2) (antibody, V domains shown)
VH: QVQLVESGGGLVQPGGSLRLSCAASGFTFNNYAVSWVRQAPGKGLEWVSGISYGGSNTYYADSVKGRFTISRDNSKNTLYLQMNSLRAEDTAVYYCARTLGGDFDHWGQGTLVTVSS
VL: DIVLTQPPSVSGAPGQRVTISCSGSSSNIGSNYVNWYQQLPGTAPKLLIYGNSKRPSGVPDRFSGSKSGTSASLAITGLQSEDEADYYCQSFTQMLLVFGGGTKLTVLG
notes: as for B2
With B7, the “Adhesion Assay Mn2+-dependent hOPN, IC50” value in assay [6] was 0.6 nM. In assay [7], the Kd was found to be 19 nM, the off-rate constant (koff) was found to be 0.00933 s⁻¹ and the kon stood at 491000 M⁻¹ s⁻¹.
